The record followed here is PMC7771667, “Discovery of potent and specific inhibitors targeting the active site of MMP-9 from the engineered SPINK2 library” (PLoS ONE, 2020).

Test [1] addresses T1, active MMP-9_Cat-H6 (human, UniProt P14780 107-449).
T1 construct: human MMP-9 catalytic domain with the Fn-like domain, without the HPX domain; pro-form residues 20-449; not shown: His6, C-terminal, kept
Description: SEC; MMP-9 (25 μM) incubated with TIMP-1 or M91005 (75 μM; molar ratio 3:1) in PBS for 1 h at 4°C; ACQUITY UPLC BEH200 column in PBS; shift of the retention time. Particulars: both partners purified.

Test [2] has as its target T2, MMP-9_Cat_E402Q-H6 (human, UniProt P14780 107-449, E402Q).
T2 construct: human MMP-9 catalytic domain with the Fn-like domain, without the HPX domain; pro-form residues 20-449; also called pro-peptide-removed E402Q mutant; active-site mutant; source: HEK293F, transiently expressed, purified (HisTrap excel), pro-peptide removed with MMP-3; not shown: His6, C-terminal, kept
The description is as above. The note with it: both partners purified.

T1 sequence (P14780 107-449): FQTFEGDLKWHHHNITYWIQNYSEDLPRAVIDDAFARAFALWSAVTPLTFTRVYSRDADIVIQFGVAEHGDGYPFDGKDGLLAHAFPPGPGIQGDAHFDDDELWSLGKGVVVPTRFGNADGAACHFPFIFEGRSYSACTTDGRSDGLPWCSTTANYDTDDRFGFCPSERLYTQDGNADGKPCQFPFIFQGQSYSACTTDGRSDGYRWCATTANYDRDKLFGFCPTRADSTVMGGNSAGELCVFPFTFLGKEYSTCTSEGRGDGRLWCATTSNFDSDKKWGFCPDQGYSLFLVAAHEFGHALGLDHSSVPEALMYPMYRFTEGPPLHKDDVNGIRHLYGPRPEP
T2 sequence (P14780 107-449 E402Q): as the sequence (P14780 107-449) above, with E296Q counted along it

B1: Human TIMP-1 (natural protein)
chain: not shown
notes: signal peptide in the construct; human TIMP-1 residues 1-207
As to B1, the binding result in test [1] and in test [2] was “binds” in each case.
